Assay: yeast display, Sf9 membrane polyspecificity reagent, FACS + sequencing; frameworks hold sequencing errors
Procedure, shortened: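 A nanobody's polyreactivity label depends on the gate it was sorted from. Yeast display cells were stained with 10% biotinylated, detergent-solubilized Sf9 membrane reagent for 1 hour at 4 °C, enriched on streptavidin microbeads and sorted by FACS. The low and high (top ~1%) gates were set on anti-HA fluorescence for expression and streptavidin fluorescence for reagent binding.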

Sequence | polyreactivity (PSR sort gate)
QVQLVESGGGLVQAGGSLRLSCAASGSTFRGYAMGWYRQAPGKERELVATITSGGSTNYADSVKGRFTISRDNGKNTVYLQMNSLKPEDTAVYYCNARWVPRYWYDYWGQGTQVTVSS | high polyreactivity
QVQLVESGGGLVQAGGSLRLSCAASGSTFRGYAMGWYRQATGKERELVAAISSSGGRTYYADSVKGRFTISRDNAKNPVYLQMNSLKREDTAVYYCNAASKNSVRYAYQNYDYRGQGTQVTVSS | high polyreactivity
QVQLVESGGGLVQAGGSLRLSCAASGSTFRGYAMGWYRQVPGKERELVADISWSGTSTYYADSVKGRFTISRDNAKNTFYLQLNSVIPEDTAVYYCAKGGRDRSRKYYYWGQGTQVTVSS | high polyreactivity
QVQLVESGGGLVQAGGSLRLSCAASGSTFRGYTMGWYRQAPGKEREFVATISSRGGSTNYADSVKGRFTISRDNAKNTVYLQMNSMKPEDTAVYYCNVRRVWWEWPRGDSWGQGTQVTVSS | high polyreactivity
QVQLVESGGGLVQAGGSLRLSCAASGSTFRGYVMGWYRQAPGKERELVAAISRSGTSTYYADSVKGRFTISRDNAKNTVYLQMNSLKPEDTAVYYCAAQLYGHGEDYWGQGTQVTVSS | high polyreactivity
QVQLVESGGGLVQAGGSLRLSCAASGSTFRHYAMGWYRQAPGKERELVAAISSRGGSTYYADSVKGRFTISRDNAKNTVYLQMNSLKPEDTAVYYCNVVGYQRPSYRHMDYWGQGTQVTVSS | high polyreactivity
QVQLVESGGGLVQAGGSLRLSCAASGSTFRIYAMRSYRQAPGKERELGARISWNGGRTYYADSVKGRFTISRVNAKNTVYLQMNSLKPEDTAGYYCNALVPPGYDYWGQGTQVSVSS | high polyreactivity
QVQLVESGGGLVQAGGSLRLSCAASGSTFRIYTMGWYRQAPGKERELVAGISSSGNTNYADSVKGRFTISRDNAKNTVYLQMNSLKPEDTAVYYCNAASLKFTSPVRFGYWGQGTQVTVSS | high polyreactivity
QVQLVESGGGLVQAGGSLRLSCAASGSTFRKYAMGWYRQAPGKEREFVAAITWSTGTTYYADSVKGRFTISRDNAQNTVYLQMNSLKPEDTAVYYCSADSKPPHELYESIEHESWGQGTQVTVSA | low polyreactivity
QVQLVESGGGLVQAGGSLRLSCAASGSTFRKYAMGWYRQAPGKERELVAAISRGGDSTYYADSVKGRFTISRENAKNTVYLQMNSLKPEDTAVYYCAADTRPGYSGFEYRGQGTQVTVSS | high polyreactivity
QVQLVESGGGLVQAGGSLRLSCAASGSTFRKYAMGWYSQAPGKERELVAAIRRNGVSTYYADSVKGRFTISLDNAKNTVYLQMNSLKPEDTAVYYCNARTKPDYDWGQGTQVTVSS | high polyreactivity
QVQLVESGGGLVQAGGSLRLSCAASGSTFRLYAMGWYRQAPGKERELDAAISGSGGSTYYADSVKGRFTISRDYEKNTVYLQMNSLKPVDTAVYYCAAEVVRRYYAGRGYWGHGTQVTVSS | high polyreactivity
QVQLVESGGGLVQAGGSLRLSCAASGSTFRLYTMGWYRPAPVKERELVAAITSGGSTNYADSVKGRFTISRDNAKNTVYLQMNSLKPEDTSVYYCAIAKRFPSFDYWGQGTQVTVSS | low polyreactivity
QVQLVESGGGLVQAGGSLRLSCAASGSTFRPYAMGWYRQAPGKEMELVARMTGSGDSTYYADSVKGRFTISRDNAKNTVYLQMNSLKPEDTAVYYCNALYTSLRKYNYWGQGTQVTVSS | low polyreactivity
QVQLVESGGGLVQAGGSLRLSCAASGSTFRPYAMGWYRQAPGKERDLVAAISSSGGSTYYADSVKGRFTISRDNAKNTVYLQMNSLKPEDTAVYYCAAVRRYRYPEYNHWGQGTQVTVSS | low polyreactivity
QVQLVESGGGLVQAGGSLRLSCAASGSTFRPYAMGWYRQAPGKERELVAAISSGDSTYYADSVKGRFTISRDNAKNTVYLQMNSPKREDTAVYYCAKRNYWHRGGGYWGQGTQVTVSS | high polyreactivity
QVQLVESGGGLVQAGGSLRLSCAASGSTFRPYAMGWYRQAPGKERELVAAISWSGGRTYYADSVKGRFTISRDNAKNNVYLQMNSLKPEDTAVYYCNRAGRQPKNTYDYWGQGTQVTVSS | high polyreactivity
QVQLVESGGGLVQAGGSLRLSCAASGSTFRQNAMGWYRQAPGKERELVAAISGTAGSTYYADSVKGRFTISRDNAKNTVYLQMNSLKPEDTAVYYCAKRKITKYGYGYWGQGTQVTVSS | high polyreactivity
QVQLVESGGGLVQAGGSLRLSCAASGSTFRQYAMGWYRQAPGKERELVAAITWRGDNTYYADSVKGRFTISRDNAKNTVYLQMNSLKPEDTAVYYCAARWSYRLYWGYGYWGQGTQVTLSS | low polyreactivity
QVQLVESGGGLVQAGGSLRLSCAASGSTFRQYSMGWYRQAPGKERELVAAISWSGGSTYYADSVKGRFTISRDNAKNTVYLQMNSLKPEDTAVYYCAAGRGGHRYKVGYWGQGTQVTVSS | high polyreactivity
QVQLVESGGGLVQAGGSLRLSCAASGSTFRRNAMGWYRQAPGKEREFVAAISSRGGSTYYADSVKGRFTISRDNAKNTVYLQMNSLKPEDTAVYYCAADKASRHSNPFYYWGQGTQVTVSS | high polyreactivity

Sequence | polyreactivity (PSR sort gate)
QVQLVESGGGLVQAGGSLRLSCAASGSTFRRNAMGWYRQAPGKERELVAAIDKSGGTTYYADSVKGRFTISRDNAKNTVYLQMNSLKPEDTAVYYCAVRSYLSSRGSHDYWGQGTQVTVSS | low polyreactivity
QVQLVESGGGLVQAGGSLRLSCAASGSTFRRNAMGWYRQAPGKERELVAAISRSGGSTYYADSEKGRFTISRDNAKNTVYLQMNSLKPEDTVVYYCAADAARTSHWSGDYWGQGTQVTVSS | high polyreactivity
QVQLVESGGGLVQAGGSLRLSCAASGSTFRRYAMGWYRPAPGKERELVAAISRSGGTTYYADSVKGRFTISRDNAKNTVYFQMNSLKPEDTAVYYCNARYPVVRYDYWGQGTQVTVSS | high polyreactivity
QVQLVESGGGLVQAGGSLRLSCAASGSTFRRYAMGWYRQAPGKEREFVAAITWSGGNTYADSVKGRFTISRDNAKNTVYLQMNSLKPEDTAVYYCAVQLVYDHYRYDYWGQGTQVTVSS | high polyreactivity
QVQLVESGGGLVQAGGSLRLSCAASGSTFRRYAMGWYRQAPGKERELVAAITWRGGSTYYADSVKGRFTISRDNAKNTVFLQMNSLKPEDTAVYYCATSDYYYDYWGQGTQVTVSS | high polyreactivity
QVQLVESGGGLVQAGGSLRLSCAASGSTFRRYAMGWYRQAPGKERELVADISSGGSTYYADSVKGRFTISRDNAKNTVYLQMNSLKPEDTAVYYCNAKTFYYGSRFRRAEYDYWGQGTQVTLSS | low polyreactivity
QVQLVESGGGLVQAGGSLRLSCAASGSTFRRYTMGWYRQAPGKERELVAAITWSGGSTYYADSVKGRFTISRDNAKNTVYLQMNSLKPEDTAVYYCAADRPYHTREYYYWGQGTQVNVSS | low polyreactivity
QVQLVESGGGLVQAGGSLRLSCAASGSTFRSYAMGWYRQAPGKERELVAAITSSGGRTYYADSVKGRFTISRDNAKHTVYLQMNSLKPEDTAVYYCAARTYSWGDWGQGTQVTVSS | high polyreactivity
QVQLVESGGGLVQAGGSLRLSCAASGSTFRTKAMGWYRHAPGKERELVAAITSGTRTYYADSVKGRFTLSRDNAKNTVYLQMNSLKPEDTAVYYCAAEYYGSSYSNYRTEYDYWGQGTQVTVSS | low polyreactivity
QVQLVESGGGLVQAGGSLRLSCAASGSTFRTNAMGWYRQAPGKERELVAAISGNGGSTYYADSVKGRFTISRDNAKYNVYLQMNSLKAEDTAVYYCAARRGYRYYPPFGYWGQGTQVTVSS | high polyreactivity
QVQLVESGGGLVQAGGSLRLSCAASGSTFRTNTRGWYRQAPGKERELVAAITKSGGSTYYADSVKGRFTISRDNAKNTVYLQMNSLKPEDTAVYYCAARVLYRSGLRGDYWGQGTQVTVSS | high polyreactivity
QVQLVESGGGLVQAGGSLRLSCAASGSTFRTYAMGWYRQAPGKERELVAAIRSRGGSTYYADSVKGRFTISRDNAKNTVYLLMNSLKPEDTAVYYCNAVPRWSYVDEDSWGQGTQVTVSS | high polyreactivity
QVQLVESGGGLVQAGGSLRLSCAASGSTFRTYAMGWYRQAPGKERELVAAISYNGGSTYYADSVTGRFTISRDNAKNTVYLQMNILKPEDTEVYYFAKDQTGYWYNRYGYWGQGTQVTVSS | low polyreactivity
QVQLVESGGGLVQAGGSLRLSCAASGSTFRTYSMGWYRQAPGKEREWVASITSSGASTYYADSVKGRFTISRDNAKNTVYLQMNSLKPEDTAVYYCAKGYPWYYRYKYDSWGQGTQVTVSS | high polyreactivity
QVQLVESGGGLVQAGGSLRLSCAASGSTFRVNAMGWYRQAPGKERELVAAISFSAGGTYYADSVKGRFTISRDNAKNTVYLQMNSLKPADTAVYYCNARYGGWVWSTYDHWGQGTQVTVSS | low polyreactivity
QVQLVESGGGLVQAGGSLRLSCAASGSTFRVNAMGWYRQAPGKERELVAVITSGGSTYADSVKGRFTISRDNAKNTVYLQMNSLKPEDTAVYYCAAESRWSWVHWSAYTYDYWGQGTQVTVSS | low polyreactivity
QVQLVESGGGLVQAGGSLRLSCAASGSTFRVYAMGWYRQAPGKERELVAAISWSGGRTYYADSVKGRFTISGDNAKNTVYLQMNSLKTEDTAVYYCAADTYGRYDYWGQGTQVTVSS | high polyreactivity
QVQLVESGGGLVQAGGSLRLSCAASGSTFRWNAMGWYRQAPGKERELVAAISNGGSTNYADSVKGRFTISRDNAKNSVYFQMNSLKPEDTAVYYCATDGWYGQHYYDYDFDYYYWGQGTQVTVSS | low polyreactivity
QVQLVESGGGLVQAGGSLRLSCAASGSTFRWNAMGWYRQAPGKERELVAAISSGGRTYYADSVKGRFTISRDNAKNTVYLQMNSLKPEDTAVYYCSARTSRYYYYPYAFYWGQGTQVSVSS | high polyreactivity
QVQLVESGGGLVQAGGSLRLSCAASGSTFRWYAMGWSRQAPGKERELVAAIRRIGSRTYADSVKGRFTISRDNAKNTVYLQMNSLKPEDTAVYYCATRYKYTGYDYWGQGTQVTVSS | high polyreactivity
